Test results: the supplement of paper PMC9942255

Test system: Bacillus subtilis DB104 (SP-AmyQ fusion secretion)
Assay: AmyQ secretion efficiency, weighted average sort bin (1 = best secretion, 10 = worst) (bin number (weighted average, 1-10)); higher = lower secretion efficiency
Procedure, shortened: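 The secretion score was taken as the read-frequency-weighted mean bin number, normalised to beads per bin, with low-abundance sequences excluded. Bins came from large-particle flow cytometry sorting of occupied alginate beads (~65 nL, about 0.3 cells each, with fluorescein-starch) into 10 equally populated groups by green/red fluorescence ratio after about 13 h at room temperature and nile red staining. The cells were a B. subtilis DB104 library with mature AmyQ fused to designed signal peptides, integrated at amyE, and each bin's amplicons were Illumina-sequenced.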

| Sequence | AmyQ secretion efficiency |
| --- | --- |
| MAAQTDYKKQVVGILLSLAFVLFVFSCSERHE | 4.02 |
| MAAQTDYKKQVVGILLSLAFVLFVFSPSERHE | 5.34 |
| MAAQTDYKKQVVGILLSLAFVLFVFSRSERHE | 4.39 |
| MAAQTDYKKQVVGILLSLAFVLRRRKFSERHE | 7.65 |
| MAIIIAIIAANVRNASPG | 7.68 |
| MAIIIAIIAAVIVIAALINVRNASPG | 8.6 |
| MAIIIAIIAAVIVIAALITFAVRNASPG | 6.55 |
| MAIIIAIIAAVIVIAALITFEDDEDDDRNASPG | 6.7 |
| MAIIIAIIAAVIVIAALITFEEDERNASPG | 5.02 |
| MAIIIAIIAAVIVIAALITFEVRNASPG | 5.68 |
| MAIIIAIIAAVIVIAALITFIVIVIRNASPG | 6.93 |
| MAIIIAIIAAVIVIAALITFKKRRKRNASPG | 8.46 |
| MAIIIAIIAAVIVIAALITFNRNASPG | 6.99 |
| MAIIIAIIAAVIVIAALITFNVANASPG | 5.63 |
| MAIIIAIIAAVIVIAALITFNVCNASPG | 7.28 |
| MAIIIAIIAAVIVIAALITFNVENASPG | 8.68 |
| MAIIIAIIAAVIVIAALITFNVFNASPG | 7.58 |
| MAIIIAIIAAVIVIAALITFNVGGSPVVSTSTARNASPG | 3.35 |
| MAIIIAIIAAVIVIAALITFNVGNASPG | 5.7 |
| MAIIIAIIAAVIVIAALITFNVGTPRNASPG | 8.5 |
| MAIIIAIIAAVIVIAALITFNVHNASPG | 7.6 |
| MAIIIAIIAAVIVIAALITFNVINASPG | 9.99 |
| MAIIIAIIAAVIVIAALITFNVLNASPG | 6.68 |
| MAIIIAIIAAVIVIAALITFNVMNASPG | 6.23 |
| MAIIIAIIAAVIVIAALITFNVNNASPG | 7.54 |
| MAIIIAIIAAVIVIAALITFNVPNASPG | 6.07 |

| Sequence | AmyQ secretion efficiency |
| --- | --- |
| MAIIIAIIAAVIVIAALITFNVQNASPG | 7.71 |
| MAIIIAIIAAVIVIAALITFNVRNADDD | 7.51 |
| MAIIIAIIAAVIVIAALITFNVRNAKKR | 7.34 |
| MAIIIAIIAAVIVIAALITFNVRNASKR | 7.12 |
| MAIIIAIIAAVIVIAALITFNVRNASPE | 6.75 |
| MAIIIAIIAAVIVIAALITFNVRNCSPG | 5.87 |
| MAIIIAIIAAVIVIAALITFNVRNDSPG | 6.52 |
| MAIIIAIIAAVIVIAALITFNVRNESPG | 7.39 |
| MAIIIAIIAAVIVIAALITFNVRNFSPG | 6.5 |
| MAIIIAIIAAVIVIAALITFNVRNGSPG | 7.66 |
| MAIIIAIIAAVIVIAALITFNVRNHSPG | 6.69 |
| MAIIIAIIAAVIVIAALITFNVRNISPG | 7.65 |
| MAIIIAIIAAVIVIAALITFNVRNKSPG | 6.36 |
| MAIIIAIIAAVIVIAALITFNVRNLSPG | 7.04 |
| MAIIIAIIAAVIVIAALITFNVRNMSPG | 7.67 |
| MAIIIAIIAAVIVIAALITFNVRNNSPG | 6.02 |
| MAIIIAIIAAVIVIAALITFNVRNPSPG | 7.75 |
| MAIIIAIIAAVIVIAALITFNVRNQSPG | 9.31 |
| MAIIIAIIAAVIVIAALITFNVRNRSPG | 7.6 |
| MAIIIAIIAAVIVIAALITFNVRNSSPG | 8.62 |
| MAIIIAIIAAVIVIAALITFNVRNVSPG | 8.03 |
| MAIIIAIIAAVIVIAALITFNVRNWSPG | 8.18 |
| MAIIIAIIAAVIVIAALITFNVRNYSPG | 7.13 |
| MAIIIAIIAAVIVIAALITFNVSNASPG | 7.09 |
| MAIIIAIIAAVIVIAALITFNVTNASPG | 7.21 |
| MAIIIAIIAAVIVIAALITFNVVNASPG | 8.99 |

| Sequence | AmyQ secretion efficiency |
| --- | --- |
| MAIIIAIIAAVIVIAALITFNVWNASPG | 7.05 |
| MAIIIAIIAAVIVIAALITFRRRNASPG | 8.26 |
| MAIIIAIIAAVIVIAALITFTSNVRNASPG | 7.45 |
| MARKRKIIAAVIVIAALITFNVRNASPG | 6.43 |
| MARRRRRKAAVIVIAALITFNVRNASPG | 6.9 |
| MFFKKTVVSALSISALALSVSGVASAHEI | 3 |
| MFFTIVAGLAVSAVVGSSMAAAPAEAKTI | 2.75 |
| MFFVLMAFIICLSLILSVLAAPPSGAKAESV | 5.38 |
| MFGKLLLATSALTFSLSLVLPLDGHAKAQEV | 3.02 |
| MFGMSTISLLIIFLLASAVLAKPIEAHTV | 2.54 |
| MFGTLFRVCFLAALIMAFTLPNSVYAQKP | 2.52 |
| MFGWMAGLFLAAAVLLCLMVPQQIQGASS | 4.3 |
| MFKFKKNFLFLVGLSAALMSISLFSATASAAST | 1.42 |
| MFKFKKNFLVGLSAALMSIEDEEDDASAAST | 6.33 |
| MFKFKKNFLVGLSAALMSIKKKKRRASAAST | 7.19 |
| MFKFKKNFLVGLSAALMSIKQFSATASAAST | 5.73 |
| MFKFKKNFLVGLSAALMSISLFSATASAADD | 3.08 |
| MFKFKKNFRKKRSAALMSISLFSATASAAST | 4.73 |
| MFKFKKNFRRRRRRALMSISLFSATASAAST | 6.72 |
| MFKFKKNGKSRRTAALMSISLFSATASAAST | 4.18 |
| MFKFKKNTRGGLSAALMSISLFSATASAAST | 3.49 |
| MFKIMSAFVGMVLLTIFCFSPQASAAYD | 3.33 |
| MFKKGYSSYRKRTFSLSLVLPLDGHAKAQEV | 7.96 |
| MFKKHMNNFTISLLIIFLLASAVLAKPIEAHTV | 3.28 |
| MFKKHQRRQRIIFLLASAVLAKPIEAHTV | 6.33 |
| MFKKHSRSLLIIFLLASAVLAKPIEAHTV | 4.1 |

| Sequence | AmyQ secretion efficiency |
| --- | --- |
| MFKKHSTISLLIIFLLASAVLAKPIEAHTV | 1.86 |
| MFKKHTISLLIIFLLAATFFSFTSLISAVLAKPIEAHTV | 4.38 |
| MFKKHTISLLIIFLLAEAVLAEPIEAHTV | 2.51 |
| MFKKHTISLLIIFLLALTSAVLAKPIEAHTV | 2.73 |
| MFKKHTISLLIIFLLASAVLAKPAEAHTV | 2.44 |
| MFKKHTISLLIIFLLASAVLAKPCEAHTV | 2.62 |
| MFKKHTISLLIIFLLASAVLAKPEEAHTV | 4.88 |
| MFKKHTISLLIIFLLASAVLAKPGEAHTV | 2.82 |
| MFKKHTISLLIIFLLASAVLAKPIEADEE | 3.49 |
| MFKKHTISLLIIFLLASAVLAKPIEAHDD | 3.1 |
| MFKKHTISLLIIFLLASAVLAKPIEAHTD | 1.8 |
| MFKKHTISLLIIFLLASAVLAKPIEAHTK | 2.17 |
| MFKKHTISLLIIFLLASAVLAKPIEARKK | 2.26 |
| MFKKHTISLLIIFLLASAVLAKPIECHTV | 5.04 |
| MFKKHTISLLIIFLLASAVLAKPIEEHTV | 5.81 |
| MFKKHTISLLIIFLLASAVLAKPIEGHTV | 3.78 |
| MFKKHTISLLIIFLLASAVLAKPIEPHTV | 7.19 |
| MFKKHTISLLIIFLLASAVLAKPIERHTV | 5.58 |
| MFKKHTISLLIIFLLASAVLAKPIEYHTV | 5.13 |
| MFKKHTISLLIIFLLASAVLAKPLEAHTV | 2.46 |
| MFKKHTISLLIIFLLASAVLAKPMEAHTV | 2.67 |
| MFKKHTISLLIIFLLASAVLAKPPPTTATIEAHTV | 7.2 |
| MFKKHTISLLIIFLLASAVLAKPSEAHTV | 2.57 |
| MFKKHTISLLIIFLLASAVLAKPTEAHTV | 2.68 |
| MFKKHTKRKRRKFLLASAVLAKPIEAHTV | 7.89 |
| MFKKHTRKRKIIFLLASAVLAKPIEAHTV | 7.04 |

| Sequence | AmyQ secretion efficiency |
| --- | --- |
| MFKKLKRRKSALTFSLSLVLPLDGHAKAQEV | 6.09 |
| MFKKLLLATSALTFSLSLVLDAKAQEV | 2.17 |
| MFKKLLLATSALTFSLSLVLEEDDHAKAQEV | 3.32 |
| MFKKLLLATSALTFSLSLVLKLRGHAKAQEV | 6.07 |
| MFKKLLLATSALTFSLSLVLPLDGHAKAQED | 2.98 |
| MFKKLLLATSALTFSLSLVLPLDGHAKAQSV | 1.96 |
| MFKKLLLATSALTFSLSLVLPLDGHYKAQEV | 6.94 |
| MFKKLLLATSALTFSLSLVLRRKKKHAKAQEV | 5.87 |
| MFKKLLLATSALTFSLSLVLVLSIHAKAQEV | 3.44 |
| MFKKLLLATSALTPLDGHAKAQEV | 5.8 |
| MFKKLRKKKKRLTFSLSLVLPLDGHAKAQEV | 6.86 |
| MFKKPTISLLIIFLLASAVLAKPIEAHTV | 2.38 |
| MFKKQSRATSALTFSLSLVLPLDGHAKAQEV | 6.63 |
| MFKRGIQAFAGGIILATAVLAAVFYLTDEDQAAAV | 5.98 |
| MFLAKRVSALTPSTTLAITAKAKEL | 7.34 |
| MFLFQVSHAIIISVMLSFVIAVFHTIHASELTP | 6.77 |
| MFLKLLLATSALTFSLSLVLPLDGHAKAQEV | 2.93 |
| MFLRKILLSSALSLGMLVSAAPVLATSS | 2.2 |
| MFMKHTISLLIIFLLASAVLAKPIEAHTV | 2.89 |
| MFMKSGMEQAVSVLLLLSRLPVQASLTSE | 9.96 |
| MFMLFMNASLVLFAVVFVFAVKGAPAKAETH | 5.11 |
| MFMLTMNNMAIIIAIIAAVIVIAALITFNVRNASPG | 6.62 |
| MFMMLGSLLITAGILVFFAVVVKDVFAAGL | 6.51 |
| MFMMSTNNFKRFIAAFLVLALMISLVPADVLAKST | 2.59 |
